According to patent US20240049668A1 (VILMORIN AND CIE, published 2024):

T1: Movement Protein of ToBRFV (Tomato Brown Rugose Fruit Virus …, UniProt A0A0S2SZW1 1-266)
T1 sequence: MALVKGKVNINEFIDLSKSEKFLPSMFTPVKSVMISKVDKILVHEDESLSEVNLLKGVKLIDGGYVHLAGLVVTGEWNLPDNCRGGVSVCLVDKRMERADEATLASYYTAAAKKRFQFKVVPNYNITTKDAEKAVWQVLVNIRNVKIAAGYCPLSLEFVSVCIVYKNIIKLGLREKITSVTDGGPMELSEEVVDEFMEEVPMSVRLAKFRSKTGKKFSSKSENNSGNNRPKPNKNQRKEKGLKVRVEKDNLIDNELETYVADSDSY

B1: TM-2-2 variant L11_10 (767 I) (receptor)
chain: MAEILLTSVINKSVEIAGNLLIQEGKRLYWLKEDIDWLQREMRHIRSYVDNAKAKEAGGDSRVKNLLKDIQELAGDVEDLLDDFLPKIQQSNKFNYCLKRSSFADEFAMEIEKIKRRVVDIDRIRKTYNIIDTDNNNDDCVLLDRRRLFLHADETEIIGLDDDFNMLQAKLLNQDLHYGVVSIVGMPGLGKTTLAKKLYRLIRDQFECSGLVYVSQQPRASEILLDIAKQIGLTEQKMKENLEDNLRSLLKIKRYVILLDDIWDVEIWDDLKLVLPECDSKVGSRMIITSRNSNVGRYIGGESSLHALQPLESEKSFELFTKKIFNFDDNNSWANASPDLVNIGRNIVGRCGGIPLAIVVTAGMLRARERTEHAWNRVLESMGHKVQDGCAKVLALSYNDLPIASRPCFLYFGLYPEDHEIRAFDLINMWIAEKFIVVNSGNRREAEDLAEDVLNDLVSRNLIQLAKRTYNGRISSCRIHDLLHSLCVDLAKESNFFHTAHDAFGDPGNVARLRRITFYSDNVMIEFFRSNPKLEKLRVLFCFAKDPSIFSHMAYFDFKLLHTLVVVMSQSFQAYVTIPSKFGNMTCLRYLRLEGNICGKLPNSIVKLTRLETIDIDRRSLIQPPSGVWESKHLRHLCYRDYGQACNSCFSISSFYPNIYSLHPNNLQTLMWIPDKFFEPRLLHRLINLRKLGILGVSNSTVKMLSIFSPVLKALEVLKLSFSSDPSEQIKLSSYPHIAKLHLNVNRTMALNSQSFPPNLIKLTLAIFSVDRYILAVLKTFPKLRKLKMFICKYNEEKMDLSGEANGYSFPQLEVLHIHSPNGLSEVTCTDDVSMPKLKKLLLTGFHCRISLSERLKKLSK
B2: TM-2-2 variant L11_11 (767 C) (receptor)
chain: MAEILLTSVINKSVEIAGNLLIQEGKRLYWLKEDIDWLQREMRHIRSYVDNAKAKEAGGDSRVKNLLKDIQELAGDVEDLLDDFLPKIQQSNKFNYCLKRSSFADEFAMEIEKIKRRVVDIDRIRKTYNIIDTDNNNDDCVLLDRRRLFLHADETEIIGLDDDFNMLQAKLLNQDLHYGVVSIVGMPGLGKTTLAKKLYRLIRDQFECSGLVYVSQQPRASEILLDIAKQIGLTEQKMKENLEDNLRSLLKIKRYVILLDDIWDVEIWDDLKLVLPECDSKVGSRMIITSRNSNVGRYIGGESSLHALQPLESEKSFELFTKKIFNFDDNNSWANASPDLVNIGRNIVGRCGGIPLAIVVTAGMLRARERTEHAWNRVLESMGHKVQDGCAKVLALSYNDLPIASRPCFLYFGLYPEDHEIRAFDLINMWIAEKFIVVNSGNRREAEDLAEDVLNDLVSRNLIQLAKRTYNGRISSCRIHDLLHSLCVDLAKESNFFHTAHDAFGDPGNVARLRRITFYSDNVMIEFFRSNPKLEKLRVLFCFAKDPSIFSHMAYFDFKLLHTLVVVMSQSFQAYVTIPSKFGNMTCLRYLRLEGNICGKLPNSIVKLTRLETIDIDRRSLIQPPSGVWESKHLRHLCYRDYGQACNSCFSISSFYPNIYSLHPNNLQTLMWIPDKFFEPRLLHRLINLRKLGILGVSNSTVKMLSIFSPVLKALEVLKLSFSSDPSEQIKLSSYPHIAKLHLNVNRTMALNSQSFPPNLIKLTLACFSVDRYILAVLKTFPKLRKLKMFICKYNEEKMDLSGEANGYSFPQLEVLHIHSPNGLSEVTCTDDVSMPKLKKLLLTGFHCRISLSERLKKLSK
B3: TM-2-2 variant pJL 476_K (822 K, 848 R) (receptor)
chain: MAEILLTSVINKSVEIAGNLLIQEGKRLYWLKEDIDWLQREMRHIRSYVDNAKAKEAGGDSRVKNLLKDIQELAGDVEDLLDDFLPKIQQSNKFNYCLKRSSFADEFAMEIEKIKRRVVDIDRIRKTYNIIDTDNNNDDCVLLDRRRLFLHADETEIIGLDDDFNMLQAKLLNQDLHYGVVSIVGMPGLGKTTLAKKLYRLIRDQFECSGLVYVSQQPRASEILLDIAKQIGLTEQKMKENLEDNLRSLLKIKRYVILLDDIWDVEIWDDLKLVLPECDSKVGSRMIITSRNSNVGRYIGGESSLHALQPLESEKSFELFTKKIFNFDDNNSWANASPDLVNIGRNIVGRCGGIPLAIVVTAGMLRARERTEHAWNRVLESMGHKVQDGCAKVLALSYNDLPIASRPCFLYFGLYPEDHEIRAFDLINMWIAEKFIVVNSGNRREAEDLAEDVLNDLVSRNLIQLAKRTYNGRISSCRIHDLLHSLCVDLAKESNFFHTAHDAFGDPGNVARLRRITFYSDNVMIEFFRSNPKLEKLRVLFCFAKDPSIFSHMAYFDFKLLHTLVVVMSQSFQAYVTIPSKFGNMTCLRYLRLEGNICGKLPNSIVKLTRLETIDIDRRSLIQPPSGVWESKHLRHLCYRDYGQACNSCFSISSFYPNIYSLHPNNLQTLMWIPDKFFEPRLLHRLINLRKLGILGVSNSTVKMLSIFSPVLKALEVLKLSFSSDPSEQIKLSSYPHIAKLHLNVNRTMALNSQSFPPNLIKLTLAYFSVDRYILAVLKTFPKLRKLKMFICKYNEEKMDLSGEANGYSFPQLEVLHIHSPKGLSEVTCTDDVSMPKLKKLLLTGFHRRISLSERLKKLSK
B4: TM-2-2 variant pJL 477_D (822 D, 848 R) (receptor)
chain: MAEILLTSVINKSVEIAGNLLIQEGKRLYWLKEDIDWLQREMRHIRSYVDNAKAKEAGGDSRVKNLLKDIQELAGDVEDLLDDFLPKIQQSNKFNYCLKRSSFADEFAMEIEKIKRRVVDIDRIRKTYNIIDTDNNNDDCVLLDRRRLFLHADETEIIGLDDDFNMLQAKLLNQDLHYGVVSIVGMPGLGKTTLAKKLYRLIRDQFECSGLVYVSQQPRASEILLDIAKQIGLTEQKMKENLEDNLRSLLKIKRYVILLDDIWDVEIWDDLKLVLPECDSKVGSRMIITSRNSNVGRYIGGESSLHALQPLESEKSFELFTKKIFNFDDNNSWANASPDLVNIGRNIVGRCGGIPLAIVVTAGMLRARERTEHAWNRVLESMGHKVQDGCAKVLALSYNDLPIASRPCFLYFGLYPEDHEIRAFDLINMWIAEKFIVVNSGNRREAEDLAEDVLNDLVSRNLIQLAKRTYNGRISSCRIHDLLHSLCVDLAKESNFFHTAHDAFGDPGNVARLRRITFYSDNVMIEFFRSNPKLEKLRVLFCFAKDPSIFSHMAYFDFKLLHTLVVVMSQSFQAYVTIPSKFGNMTCLRYLRLEGNICGKLPNSIVKLTRLETIDIDRRSLIQPPSGVWESKHLRHLCYRDYGQACNSCFSISSFYPNIYSLHPNNLQTLMWIPDKFFEPRLLHRLINLRKLGILGVSNSTVKMLSIFSPVLKALEVLKLSFSSDPSEQIKLSSYPHIAKLHLNVNRTMALNSQSFPPNLIKLTLAYFSVDRYILAVLKTFPKLRKLKMFICKYNEEKMDLSGEANGYSFPQLEVLHIHSPDGLSEVTCTDDVSMPKLKKLLLTGFHRRISLSERLKKLSK
B5: TM-2-2 variant pJL 477_H (822 H, 848 R) (receptor)
chain: MAEILLTSVINKSVEIAGNLLIQEGKRLYWLKEDIDWLQREMRHIRSYVDNAKAKEAGGDSRVKNLLKDIQELAGDVEDLLDDFLPKIQQSNKFNYCLKRSSFADEFAMEIEKIKRRVVDIDRIRKTYNIIDTDNNNDDCVLLDRRRLFLHADETEIIGLDDDFNMLQAKLLNQDLHYGVVSIVGMPGLGKTTLAKKLYRLIRDQFECSGLVYVSQQPRASEILLDIAKQIGLTEQKMKENLEDNLRSLLKIKRYVILLDDIWDVEIWDDLKLVLPECDSKVGSRMIITSRNSNVGRYIGGESSLHALQPLESEKSFELFTKKIFNFDDNNSWANASPDLVNIGRNIVGRCGGIPLAIVVTAGMLRARERTEHAWNRVLESMGHKVQDGCAKVLALSYNDLPIASRPCFLYFGLYPEDHEIRAFDLINMWIAEKFIVVNSGNRREAEDLAEDVLNDLVSRNLIQLAKRTYNGRISSCRIHDLLHSLCVDLAKESNFFHTAHDAFGDPGNVARLRRITFYSDNVMIEFFRSNPKLEKLRVLFCFAKDPSIFSHMAYFDFKLLHTLVVVMSQSFQAYVTIPSKFGNMTCLRYLRLEGNICGKLPNSIVKLTRLETIDIDRRSLIQPPSGVWESKHLRHLCYRDYGQACNSCFSISSFYPNIYSLHPNNLQTLMWIPDKFFEPRLLHRLINLRKLGILGVSNSTVKMLSIFSPVLKALEVLKLSFSSDPSEQIKLSSYPHIAKLHLNVNRTMALNSQSFPPNLIKLTLAYFSVDRYILAVLKTFPKLRKLKMFICKYNEEKMDLSGEANGYSFPQLEVLHIHSPHGLSEVTCTDDVSMPKLKKLLLTGFHRRISLSERLKKLSK
B6: TM-2-2 variant pJL 476_R (822 R, 848 R) (receptor)
chain: MAEILLTSVINKSVEIAGNLLIQEGKRLYWLKEDIDWLQREMRHIRSYVDNAKAKEAGGDSRVKNLLKDIQELAGDVEDLLDDFLPKIQQSNKFNYCLKRSSFADEFAMEIEKIKRRVVDIDRIRKTYNIIDTDNNNDDCVLLDRRRLFLHADETEIIGLDDDFNMLQAKLLNQDLHYGVVSIVGMPGLGKTTLAKKLYRLIRDQFECSGLVYVSQQPRASEILLDIAKQIGLTEQKMKENLEDNLRSLLKIKRYVILLDDIWDVEIWDDLKLVLPECDSKVGSRMIITSRNSNVGRYIGGESSLHALQPLESEKSFELFTKKIFNFDDNNSWANASPDLVNIGRNIVGRCGGIPLAIVVTAGMLRARERTEHAWNRVLESMGHKVQDGCAKVLALSYNDLPIASRPCFLYFGLYPEDHEIRAFDLINMWIAEKFIVVNSGNRREAEDLAEDVLNDLVSRNLIQLAKRTYNGRISSCRIHDLLHSLCVDLAKESNFFHTAHDAFGDPGNVARLRRITFYSDNVMIEFFRSNPKLEKLRVLFCFAKDPSIFSHMAYFDFKLLHTLVVVMSQSFQAYVTIPSKFGNMTCLRYLRLEGNICGKLPNSIVKLTRLETIDIDRRSLIQPPSGVWESKHLRHLCYRDYGQACNSCFSISSFYPNIYSLHPNNLQTLMWIPDKFFEPRLLHRLINLRKLGILGVSNSTVKMLSIFSPVLKALEVLKLSFSSDPSEQIKLSSYPHIAKLHLNVNRTMALNSQSFPPNLIKLTLAYFSVDRYILAVLKTFPKLRKLKMFICKYNEEKMDLSGEANGYSFPQLEVLHIHSPRGLSEVTCTDDVSMPKLKKLLLTGFHRRISLSERLKKLSK

molecular target: T1, Movement Protein of ToBRFV; assay: cell-based or functional assay

Binder	HR to MP Rugose [HR scale 0-4]
B1	0
B2	0

molecular target: T1, Movement Protein of ToBRFV; assay: cell-based or functional assay; remark: another data set of the same source

Binder	HR to MP Rugose [HR scale 0-4]
B3	0
B4	< 1
B5	< 1
B6	0
